Source: publication PMC6127294, “Jungle Express is a versatile repressor system for tight transcriptional control” (Nature Communications, 2018)

Biological target: the molecule itself
Assay: crystal structure; EilR (selenomethionine-labeled) in complex with the duplexed eilOc operator oligonucleotide, 2:1 protein:DNA molar ratio; 0.1 M Li2SO4, 0.1 M MgCl2, 0.1 M HEPES pH 7.5, 20% PEG 3350, 10% hexanediol

B1: EilR (natural protein, Enterobacter lignolyticus)
chain: MGYLNREERRETIMQAAMRVALDQGFTGMTVRNIATAAGVAAGQVHHHFTSSGELKSQAFIRVIREMMDLQRLSRTAGWREQLFSALGSEDGRLEPYIRLWRQAQLLADSDPEIKSAYLLTMNLWHDEAVRIIRAGHAAGEFTLRDSAENIAWRLISLVCGLDGIYVLGMPEVDDAAFTRHLQHVIQLELFS
modifications: selenomethionine-labeled protein for the EilR-eilO crystal structure
notes: 21.6 kDa monomer; also called EilR repressor; EilR-His8 (before cleavage of the tag); source: E. coli harboring pLane-eilR, purified (His-Trap, TEV cleavage, second His-Trap flowthrough)
- stoichiometry N: 2
